Positions of bridges follow the written chain, without caps; N, C: chain ends. No end group written: not given here. *: point of attachment. FITC = O=C1OC2(c3ccc(O)cc3Oc3cc(O)ccc32)c2ccc(NC(=S)*)cc21
How the values were obtained:
[1] = target: T1, GRP78 (Homo sapiens, UniProt P11021); test: Co-immunoprecipitation with GRP78; format: binding
Experimental: (§1) The membrane fraction of HUVECs was isolated by using Mem-PER Eukaryotic Membrane Protein Extraction Kit which was also obtained from Pierce (Rockford, Ill., USA).
1 μg antibodies of GRP78 were pre-immobilized on 20 μl protein A/G agarose beads from Santa Cruz (Santa Cruz, Calif., USA) for 1 h at room temperature. Unbound antibodies were washed out by 100 mM Tris-Hcl (pH 8.0). Then 1 μg ISM and 1 μg GRP78 (or 1 mg membrane fraction protein lysates containing GRP78) were incubated with GRP78 antibody mounted beads for 4 h at 4° C. After removing the unbound proteins, precipitates were resolved by SDS-PAGE and analyzed for the presence of ISM, GRP78 or AACs by Western blotting.
Target sequence in this assay (P11021 19-654, species assumed): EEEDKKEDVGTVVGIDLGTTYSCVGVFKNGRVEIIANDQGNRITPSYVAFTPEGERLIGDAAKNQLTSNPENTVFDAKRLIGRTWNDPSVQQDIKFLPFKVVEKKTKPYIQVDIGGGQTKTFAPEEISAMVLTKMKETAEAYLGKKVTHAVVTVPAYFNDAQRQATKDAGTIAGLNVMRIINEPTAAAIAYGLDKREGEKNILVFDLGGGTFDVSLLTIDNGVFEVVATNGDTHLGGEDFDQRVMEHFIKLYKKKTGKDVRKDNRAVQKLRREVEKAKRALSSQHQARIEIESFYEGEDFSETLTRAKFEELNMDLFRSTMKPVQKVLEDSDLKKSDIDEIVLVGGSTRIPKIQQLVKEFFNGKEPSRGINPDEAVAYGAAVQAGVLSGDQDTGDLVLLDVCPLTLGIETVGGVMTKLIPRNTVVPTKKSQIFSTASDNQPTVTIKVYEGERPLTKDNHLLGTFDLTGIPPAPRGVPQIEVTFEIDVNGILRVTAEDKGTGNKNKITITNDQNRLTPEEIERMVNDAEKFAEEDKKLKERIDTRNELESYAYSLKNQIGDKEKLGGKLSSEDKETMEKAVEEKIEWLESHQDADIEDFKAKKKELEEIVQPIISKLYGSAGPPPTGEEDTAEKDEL

[2] = system: 4T1 breast carcinoma cells; test: FITC-RKD binding to the 4T1 breast cancer cell surface in vitro; format: cell-based; details: 24 h treatment
Experimental: FIG. 12a FITC-RKD peptide binds to cell-surface GRP78. […] 4T1 breast carcinoma cells were treated with FITC-RKD (green) 24 h. Cells were fixed and stained by Phalloidin (red) to represent the cell outline. Nuclei were counter stained by DAPI (blue).

[3] = system: HUVECs; test: Uptake of FITC-labelled peptide by cultured HUVECs; format: cell-based, human; details: compared to FITC-labeled cRAA peptide
Source text: FIG. 11 FITC-RKD peptide enters cultured HUVECs likely by endocytosis;

[4] = system: B16 melanoma; test: FITC-RKD targeting to subcutaneous B16 tumor in mice after intravenous delivery; format: in vivo, mouse; details: delivered intravenously
Source text: FIG. 9 FITC labelled cRKD (FITC-RKD) targets to subcutaneous B16 tumor in mice when delivered intravenously.
FIG. 10 FITC-RKD targets both the B16 melanoma tumor cells and tumor ECs when delivered intravenously;

[5] = target: T2, GRP78, purified recombinant protein (UniProt P11021 19-654, limits assumed); test: ELISA solid phase-binding assay, GRP78 titrated on the coated ligand
T2 construct: also called glucose-regulated protein 78 kDa; BiP
T2 sequence (P11021 19-654 limits assumed): as the sequence (P11021 19-654, species assumed) above

[6] = system: endothelial cells (ECs); test: Apoptosis assay (Cell Death ELISA) in cultured ECs; format: cell-based
Experimental: ECs (2×10^4 cells per well) in 96-well plate were starved in 2% FBS basal CSC medium for 3 h. Cells were then incubated with peptides of various concentrations and 15 ng/ml VEGF for 24 h. Apoptosis was detected by measuring cytosolic oligonucleosome-bound DNA using a Cell Death ELISA kit purchased from Roche (USA). Plots represented the mean of 3 wells of apoptotic cells in 96 well plate (±SEM).

[7] = system: ECs; test: Cell attachment (EC adhesion) assay; format: cell-based; details: peptide coated on plastic surface
Experimental: 96-well plates were coated with 50 μl of 1 μM ISM at 4° C. overnight. Nonspecific binding sites were blocked with 1% BSA for 2 h at 37° C. ECs were harvested and incubated in CSC basal medium containing 4 μg/ml neutralizing antibodies or control IgG for 30 min. 2[…]104 cells were plated to each well and allowed to attach for 60 min at 37° C. Attached cells were fixed by 10% formalin and stained with 0.2% crystal violet. Absorbed crystal violet was extracted by 10% acetic acid and quantified by measuring the absorbance of eluted dye at 595 nm with a microplate reader.

[8] = target: T1, GRP78; test: ELISA solid phase-binding assay for binding affinity to GRP78
Experimental: (§2) ELISA solid phase-binding assay was used to determine the dissociation constant between ISM or cyclic peptide and GRP78 as previously described with minor modification (Nishiuchi, Takagi et al. 2006). 96-well plates were coated with 50 μl of 10 nM cyclic peptide at 4° C. overnight. Nonspecific binding sites were blocked with 1% BSA for 2 h at room temperature. Increasing concentrations of GRP78 were incubated with immobilized cyclic peptide. After washing, the amount of bound GRP78 was quantified by ELISA. The value for Kd was calculated by GraphPad Prism software.
Target sequence in this assay (P11021 19-654, species assumed): as above

[9] = system: HUVECs; test: Tube formation assay on Matrigel; format: cell-based, human
Experimental: HUVECs (1×10^4) were pre-treated with peptides of various concentrations for 30 min before being plated onto the polymerized Matrigel (Millipore, USA) in 15-well μ-slide (Ibidi, Germany). After 4-6 h, capillary network was documented using Zeiss Axiovert200 inverted microscope (Maple Grove, Minn., USA). Tube length was quantified by measuring the length of branches in representative fields using ImageJ software. Plots represented the mean of 3 wells of tubular length in 15-well μ-slide (t SEM).

[10] = target: T2, GRP78, purified recombinant protein; test: ELISA solid phase-binding assay, compared with cRKD
Experimental: as §2
Using similar ELISA method, we determined the binding affinity between kRKD peptide and GRP78 using purified recombinant GRP78 protein.

[11] = system: B16F10 melanoma; test: Mouse tumorigenesis: subcutaneous B16F10 melanoma, intravenous treatment from day 0; format: in vivo
Experimental: FIG. 4 Recombinant ISM and ISM derived cRKD peptide inhibit B16F10 tumour growth in vivo. A. Tumour growth curve in mice. X-axis represents the days after 5×10^5 tumour cell inoculation. Groups consisted of control mice receiving no treatment, recombinant ISM, cRKD peptide and its control-cyclic RAA peptide, given in six doses of 250 μg/mouse through tail vein injection on days 0, 2, 4, 6, 8, and 10 (5 mice in each group, each mice with one tumour). **: p<0.01,*: p<0.05, n=5. B. Tumour weight at the end of the experiment (14 days after tumour cell inoculation). C. Recombinant ISM and cRKD peptide inhibits B16F10 tumour growth. […] Paraffin sections of tumors from mice groups treated by control, ISM, cRAA and cRKD peptides were probed for microvessel density, tumor cell proliferation and apoptosis through immunofluoresence staining using anti-CD31 (A), anti-PCNA (B) and TUNEL staining (C) respectively. Representative photos are shown. (D) Quantification of microvessel density. Microvessel density is the number of microvessels per microscopic field. (E) Quantification of cell proliferation in tumor sample. Cell proliferation is presented as the percentage of PCNA positive cells out of the total number of cells (DAPI positive cells) in the microscopic field. (F) Quantification of apoptosis in tumor. Apoptosis is quantified as the percentage of TUNEL positive cells out of the total number of cells (DAPI positive cells) in the microscopic field. Plots represent the mean of 3 fields per section, 3 sections per tumor and 2 tumors per group (±SEM). ** P≦0.01, * P≦0.05; Adult 8-week-old female C57BL/6J mice were used in this study. Animal care and experimentation was carried out under the institutional guidelines issued by the local institutional animal care and use committee (IACUC; protocol 066/12). 5×10^5 B16F10 cells in 0.1 ml PBS were injected subcutaneously into the dorsal left flank of the mouse. Twenty mice were assigned into 4 different groups consisted of control mice receiving no treatment, recombinant ISM, cyclic RKD peptide and its peptide control-cyclic RAA peptide, given in six doses of 250 μg through tail vein injection on days 0, 2, 4, 6, 8, and 10 (5 mice in each group, each mice with one tumor). Health status of the mice was monitored over two weeks and visible tumor size were measured daily by calipers after 8 days until the end point (day 14). Tumor volume was calculated using the following formula: 0.52×length×(width)^2 mm^3, where the largest dimension of the tumor is considered as the length and the width is the perpendicular dimension. On day 14, mice were sacrificed, and their dorsal flank was opened and photographed to exam the vascularization. Then tumors were excised and weighed followed by either fixing in 4% paraformaldehyde for sectioning or snap-freezing in liquid nitrogen for further analysis. Paraffin-embedded tissue sections of 5 μm were deparaffinized by heating at 60° C. for 7 minutes before deparaffinizing in histoclear followed by the rehydration in graded series of alcohol (100%, 90%, 80%, and 70% ethanol in ddH2O) and finally in PBS for 5 minutes. Antigen retrieval was done in a bench-top 2100-Retriever according to the protocol of the manufacturer (Electron Microscopy Sciences, Hatfield, Pa.). The sections were blocked with 3% bovine serum albumin (BSA) in a humidified chamber for 1 hour at room temperature followed by overnight incubation with the anti-CD31 (Santa Cruz Biotechnology, Santa Cruz, Calif.), anti-PCNA antibody (Santa Cruz Biotechnology), anti-GRP78 antibody (Santa Cruz Biotechnology), or anti-His tag antibody (Santa Cruz Biotechnology) at 4° C. The following day, unbound antibody was washed with 1×PBS containing 0.1% Tween-20 (1×PBST) and incubated with the corresponding Alexafluor 568 secondary antibodies (Life Technologies) for 1.5 hours at 37° C. Sections were rinsed again and incubated for 10 minutes with DAPI at 1 μg/mL to visualize the DNA in the cell nucleus. […]

[12] = target: T1, GRP78; test: Pull down assay with HUVEC plasma membrane extract; format: binding; design: Incubation of ISM with plasma membrane extract from HUVECs; endogenous in cells; host or cells: HUVEC plasma membrane fraction; details: plasma membrane extract from HUVECs
Source text: His-tagged ISM and its binding partners from plasma membrane extract were pulled down by Epitope Tag Protein Isolation Kit with separation columns purchased from μMACS (Bergisch Gladbach, Germany). For searching potential binding partners of ISM, eluants were subjected to SDS-PAGE and stained with coomassie blue. Excised bands were identified by MALDI-TOF-TOF mass spectrometry analysis.
as §1
Target sequence in this assay (P11021 19-654): as the sequence (P11021 19-654, species assumed) above

FITC-RKD: FITC-CRKDC, disulfide bridge 1-5 ({FITC}-CRKDC; disulfide 1-5)
binding to cell-surface GRP78 by co-immunoprecipitation ([1]; anti-FITC antibody, plasma membrane fraction of cultured HUVECs): binds cell-surface GRP78 | binding to 4T1 cell surface [2]: binds 4T1 breast cancer cell surface in vitro | uptake by cultured HUVECs [3]: efficiently taking up by cultured HUVECs | cell types labelled in the tumor [4]: Both tumor cells and tumor blood vessel endothelial cells are labeled | labelling of xenograft melanoma [4]: preferentially labelled xenograft melanoma

Isthmin (ISM), recombinant His-tagged protein (from UniProt A2ATD1 30-454) (ligand)
Kd [5]: 8.6 nM

cRAA: Negative control mutant peptide, sequence CRAAC, disulfide bridge 1-5 (disulfide 1-5) [reference compound]
pro-apoptotic activity at 1 μM ([6]; 1 μM peptide, cultured ECs with VEGF): almost no activity | induction of EC apoptosis (pro-apoptotic activity) ([6]; cultured ECs in the presence of VEGF, 24 h): completely destroyed the proapoptotic activity | EC attachment and adhesion [7]: lost the ability to mediate EC adhesion | affinity for GRP78, fold less than cRKD ([8]; relative to cRKD): about 50 fold | anti-angiogenic activity at 1 μM ([9]; 1 μM peptide): no anti-angiogenic activity | inhibition of EC tube-like structure formation on Matrigel ([9]; dose-dependence): lost this activity

B1: Cyclic RAA peptide (cRAA) (peptide)
peptide: CRAAC
modifications: disulfide 1-5
notes: Mutant control of cRKD, with K and D both changed to A; also called control-cyclic RAA peptide
fold lower affinity than cRKD [10]: ~50 fold

B2: ISM: Isthmin, a 60 kDa secreted angiogenesis inhibitor; recombinant His-tagged mouse protein (protein, UniProt A2ATD1 30-454, looked up)
Isthmin-1: SDRQDAAAGNNNLNLESDSTSETSFPLSKEAPEEHQVVHQPFPRQRFPPETGHPSLQRDGPRSFLLDLPNFPDLSKADINGQNPNIQVTIEVVDGPDSEAEKDQHPENKPSWSLPAPDWRAWWQRSLSLARTNSGDQDDKYDSTSDDSNFLSVPRGWDRPAPGHRTFETKEQPEYDSTDGEGDWSLWSVCSVTCGNGNQKRTRSCGYACIATESRTCDRPNCPGIEDTFRTAATEVSLLAGSEEFNATKLFEVDMDSCERWMSCKSEFLKKYMHKVINDLPSCPCSYPTEVAYSTADIFDRIKRKDFRWKDASGPKEKLEIYKPTARYCIRSMLSLESTTLAAQHCCYGDNMQLITRGKGAGTPNLISTEFSAELHYKVDVLPWIICKGDWSRYNEARPPNNGQKCTESPSDEDYIKQFQEAREY
modifications: His tag
notes: recombinant His-tagged mouse protein
ISM-GRP78 interaction by co-immunoprecipitation ([1]; purified recombinant ISM and GRP78 proteins): confirmed the ISM-GRP78 interaction | tumor growth ([11]; 250 μg/mouse intravenous every 2 days, days 0-10, subcutaneous B16F10): suppressed tumor growth | vascularization (blood vessels supplying the tumor) ([11]; 250 μg/mouse intravenous, day 14): reduced vascularization | tumor angiogenesis, tumor cell proliferation and tumor cell apoptosis ([11]; immunofluorescence of tumor sections): suppress tumor angiogenesis, tumor cell proliferation and induce tumor cell apoptosis | apoptosis of tumor cells and tumor ECs (CD31/TUNEL double staining) ([11]; tumor sections, compared to controls): both tumor cells as well as tumor ECs became apoptotic | tumor vessel density (anti-CD31 immunofluorescence) ([11]; tumor tissue sections): obvious reduction of tumor vessel density | binding partner of ISM identified by pull-down [12]: identified GRP78 as a ISM binding protein | Kd ([8]; purified recombinant GRP78): 8.6 nM
